Results: US11001824
Where a chain is given by its changes, count along the chain named. In names and notes the source's numbering stands.

T1: denatured bovine pancreatic Ribonuclease B, P61823
T1 chain: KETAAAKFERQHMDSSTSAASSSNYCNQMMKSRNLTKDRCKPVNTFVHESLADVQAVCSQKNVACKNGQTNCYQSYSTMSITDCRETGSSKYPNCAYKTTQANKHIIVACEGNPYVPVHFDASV

B1: wild-type PNGase F from Flavobacterium meningosepticum (protein)
chain: GIPAPADNTVNIKTFDKVKNAFGDGLSQSAEGTFTFPADVTAVKTIKMFIKNECPNKTCDEWDRYANVYVKNKTTGEWYEIGRFITPYWVGTEKLPRGLEIDVTDFKSLLSGNTELKIYTETWLAKGREYSVDFDIVYGTPDYKYSAVVPVVQYNKSSIDGVPYGKAHTLALKKNIQLPTNTEKAYLRTTISGWGHAKPYDAGSRGCAEWCFRTHTIAINNSNTFQHQLGALGCSANPINNQSPGNWTPDRAGWCPGMAVPTRIDVLNNSLIGSTFSYEYKFQNWTNNGTNGDAFYAISSFVIAKSNTPISAPVVTNLDPHHHHHH
B2: PNGase F D60A single point mutant (protein)
chain: B1 chain with D63A

Molecular target: T1, denatured bovine pancreatic …

Row | Protein | Deglycosylation Activity on RNase B (gel shift assay) [%] | N-glycanase activity assay (gel shift)
1 | B1 | 100 | PNGase F completely de-glycosylates 1 µg of RNase B under the assay conditions described
2 | B2 | 13.4 | 
